Measurements taken from US20230357364A1 (INTERNATIONAL AIDS VACCINE INITIATIVE, published 2023).
Like-named read-outs stand apart in the source and are kept apart here.

Experiments:
SARS-CoV-2 RBD (RBD-2) [1] = target: SARS-CoV-2 RBD (RBD-2) (SARS-CoV-2); test: ELISA
SARS-CoV-1 RBD (RBD-1) = SARS-CoV-1 RBD (RBD-1) (SARS-CoV-1); test: ELISA
[2] = target: T1, SARS-CoV-2 spike on pseudovirus or live virus (USA-WA1/2020, WT) (SARS-CoV-2, UniProt P0DTC2 14-1273); test: cell-based or functional assay
[3] = target: T2, SARS-CoV-1 spike on pseudovirus (SARS-CoV-1, UniProt P59594 14-1255); test: cell-based or functional assay
[4] = target: T1, SARS-CoV-2 spike on pseudovirus or live …; test: cell-based or functional assay; remark: listed apart in the source
[5] = target: T2, SARS-CoV-1 spike on pseudovirus; test: cell-based or functional assay; remark: listed apart in the source
SARS-CoV-2 RBD (RBD-2) [6] = target: SARS-CoV-2 RBD (RBD-2) (SARS-CoV-2); test: SPR, Fc-captured IgG
SARS-CoV-2 RBD (RBD-2) [7] = target: SARS-CoV-2 RBD (RBD-2) (SARS-CoV-2); test: flow, HeLa-ACE2, mAb:RBD=2:1
SARS-CoV-2 RBD (RBD-2) [8] = target: SARS-CoV-2 RBD (RBD-2) (SARS-CoV-2); test: flow, HeLa-ACE2, mAb:RBD=4:1

Binder | EC50 (SARS-CoV-2 RBD (RBD-2) [1]) | EC50 (SARS-CoV-1 RBD (RBD-1)) | Maximum Plateau of Neutralization [2] | PSV neutralization IC50 [2] | PSV neutralization IC50 [3] | PSV neutralization IC50 [4] | PSV neutralization IC50 [5] | Kd (SARS-CoV-2 RBD (RBD-2) [6]) | koff (SARS-CoV-2 RBD (RBD-2) [6]) | kon (SARS-CoV-2 RBD (RBD-2) [6]) | % inhibition of RBD binding to hACE2 (SARS-CoV-2 RBD (RBD-2) [7]) | MFI (RBD binding to cell surface) (SARS-CoV-2 RBD (RBD-2) [7]) | % inhibition of RBD binding to hACE2 (SARS-CoV-2 RBD (RBD-2) [8]) | MFI (RBD binding to cell surface) (SARS-CoV-2 RBD (RBD-2) [8])
L12.bP12E05 (antibody, V domains shown, human IgG1) VH: EVQLVQSGAEVKKPGASVKVTCKTSGYIFSGYYMHWVRQVPGQGLEWMGWISPDSGATNYAQKFQGRVTMTRDTSITTSYVELTWLKSDDTAVYYCARGPRYSGTYFDFWGQGTLVTVSS VL: QAVVTQPASVSGSPGQSLTISCTGTSSDIGGFNYVSWYQQHPGKAPKLMIFDVSKRPSGVPNRFSGSKSGNTASLTISGLQAEDEGDYYCSSYTISSAQVFGGGTKLTVL | 1.17 µg/mL | > 50 µg/mL | 89% | 0.255 µg/mL | > 50 µg/mL | 0.075 µg/mL | > 50 µg/mL | 183 nM | 0.143 s⁻¹ | 782000 M⁻¹ s⁻¹ |  |  |  | 
L6.dP02A05 (antibody, V domains shown, human IgG1) VH: EVQLVQSGAEVKKPGASVKVSCMASGYTFTSYYMHWVRQAPGQGLEWMGIISPSGGGTSYAQKFQGRVTLTRDTSTSTVYMELSSLRSEDTAVYYCARWYDSTGSIDYWGQGTLVTVSS VL: DIVMTQSPSSLSASVGDRVTITCRASQGIRNDLGWYQQKPGKAPKRLIYAASSLQSGVPSRFSGSGSGTEFTLTISSLQPEDFATYYCLQHNSYPILTFGGGTKVEIK | 0.025 µg/mL | > 50 µg/mL | 100% | 0.059 µg/mL | > 50 µg/mL |  |  |  |  |  |  |  |  | 
L6.dP02F01 (antibody, V domains shown, human IgG1) VH: EVQLVESGGGLVQPGRSLRLSCAASGFTFDDYAMHWVRQAPGKGLEWVSGISWNSGSIAFAGSVKGRFTISRDNAKNSLYLQMNSLRAEDTALYYCAKDQGYSYGNYFDYWGQGTLVTVSS VL: QLVLTQPPSVSVAPGKTARITCGGNNIGSKSVYWYQQKPGQAPVLVVYDDSDRPSGIPERFSGSNSGNTATLTISRVEAGDEADYYCQVWDSSSDHPYVFGSGTKVTVL | 0.013 µg/mL | 0.021 µg/mL | 99% | 1.09 µg/mL | 5.56 µg/mL |  |  |  |  |  |  |  |  | 
L12.bP11A06 (antibody, V domains shown) VH: EVQLVESGGGLIQPGGSLRLSCAASGLTVSSNYMSWVRQAPGKGLEWVSVIYSGGSTFYADSVKGRFTISRDNSKNTLYLQMNSLRAEDTAVYYCARDLDVYGLDVWGQGTTVTVSS VL: DIVMTQSPSFLSASVGDRVTITCRASQGISSYLAWYQQKPGKAPKLLIYAASTLQSGVPSRFSGSGSGTEFTLTISSLQPEDFATYYCQQLNSYPPKFTFGPGTKVEIK |  |  | 100% | 0.019 µg/mL | > 50 µg/mL |  | > 50 µg/mL |  |  |  |  |  |  | 
L25.dP06E11 (antibody, V domains shown, human IgG1) VH: QVQLVESGGGLVQPGRSLRLSCAASGFTFDDYAMHWVRQAPGKGLEWVSGISWNSGSIGYADSVKGRFTISRDNAKNSLYLQMNGLRAEDTALYYCAKVPQRSRYLVGWFDPWGQGTLVTVSS VL: not shown | 0.016 µg/mL | 0.017 µg/mL | 55% | 34.6 µg/mL | > 50 µg/mL |  |  |  |  |  |  |  |  | 
L12.cP08A09 (antibody, V domains shown, human IgG1) VH: QVQLVQSGAEVKKPGASVKVSCKASGYIYSGYYMHWVRQAPGQGLEWMGWISPDSGGTNYAQRFQGRVTMTRDTSTTTAYMELSRLRSDDTAVYYCARGPRYSGTYFDYWGQGTLVTVSS VL: QSALTQPASVSGSPGQSITISCTGTSSDVGGYNYVSWYQQHPDKAPKLMIYDVSNRPSGVSNRFSGSKSGNTASLTISGLQAEDEADYYCSSYTSGSTQVFGGGTKLTVL | 0.666 µg/mL | > 50 µg/mL | 99% | 1.5 µg/mL | > 50 µg/mL | 0.382 µg/mL | > 50 µg/mL | 175 nM | 0.0707 s⁻¹ | 404000 M⁻¹ s⁻¹ | 39.4% | 6800 | 49% | 5740
L25.eP04C02 (antibody, V domains shown, human IgG1) VH: not shown VL: QSVLTQPASVSGSPGQSITISCTGTSSDVGGYNYVSWYQQHPGKAPKLMIYDVSNRPSGVSNRFSGSKSGNTASLTISGLQAEDEADYYCSSYTSSSTVVFGGGTKLTVL | 0.026 µg/mL | > 50 µg/mL | 100% | 0.155 µg/mL | > 50 µg/mL |  |  |  |  |  |  |  |  | 
L12.cP09D03 (antibody, V domains shown, human IgG1) VH: QVQLVQSGAEVKKPGASVKVSCKASGYIFSGYYTHWVRQAPGQGLEWMGWISPDSGGTNYAQKFQGRVTMTRDTSITTAYVELSGLRSDDTAVYYCARGPRYSGTYFDYWGQGTLVTVSS VL: QSVLTQPASVSGSPGQSITISCTGTSSDVGGYNYVSWYQQHPGKVPKLMIYDVSNRPSGVSNRFSGSKSGNTASLTISGLQAEDEADYYCSSYTSSSAQLFGGGTKLTVL |  | > 50 µg/mL | 85% | 0.135 µg/mL | > 50 µg/mL | 0.351 µg/mL | > 50 µg/mL | 147 nM | 0.0843 s⁻¹ | 575000 M⁻¹ s⁻¹ | 40.9% | 6640 | 50.1% | 5620
L12.bP11C10 (antibody, V domains shown, human IgG1) VH: QVQLVQSGAEVKKPGASVKVSCKASGYIFSGYYMHWVRQAPGQGLEWMGWISPDSGGTNYAQKFQGRVTMTRDTSITTGYMELSGLRSDDTAVYYCARGPRYSGTYFDYWGQGTLVTISS VL: QSALTQPTSVSGSPGQSITISCTGTSSDVGGYNYVSWYQQHPGKAPKLIIYDVSNRPSGVSNRFSGSKSGNTASLTISGLQAEDEADYYCSSYTVSSTQVFGGGTKLTVL | 3.12 µg/mL | > 50 µg/mL | 100% | 0.494 µg/mL | > 50 µg/mL | 0.092 µg/mL | > 50 µg/mL | 255 nM | 0.126 s⁻¹ | 493000 M⁻¹ s⁻¹ | 38.5% | 6900 | 54.1% | 5170
L12.bP10G07 (antibody, V domains shown, human IgG1) VH: EVQLVQSGAEVKKPGASVKVSCKASGYIYSGYYMHWVRQAPGQGLEWMGWISPDSGGTNYAQRFQGRVTMTRDTSTTTAYMELSRLRSDDTAMYYCARGPRYSGTYFDYWGQGTLVTVSS VL: QTVVTQPASVSGSPGQSITISCTGTSSDVGGYNYVSWYQQHPDKAPKLIIYDVSNRPSGVSNRFSGSKSGNTASLTISGLQAEDEAAYYCSSYTSSSTQVFGGGTKLTVL | 1.41 µg/mL | > 50 µg/mL | 100% | 0.328 µg/mL | > 50 µg/mL | 0.865 µg/mL |  | 220 nM | 0.0961 s⁻¹ | 436000 M⁻¹ s⁻¹ | 36.6% | 7120 | 49.2% | 5710
L12.bP12H09 (antibody, V domains shown, human IgG1) VH: QVQLVQSGAEVKKPGASVKVSCKASGYIFSGYYTHWVRQAPGQGLEWMGWISPDSGGTNYAQKFQGRVTMTRDTSITTAYVELSGLRSDDTAVYYCARGPRYSGTYFDYWGQGTLVTVSS VL: QSALTQPASVSGSPGQSITISCTGTSSDVGGYNHVSWYQQHPGKAPKLMIYDVSNRPSGVSNRFSGSKSGNTASLTISGLQAEDEADYYCSSYTSSSAQLFGGGTKLTVL | 0.483 µg/mL | > 50 µg/mL | 100% | 0.106 µg/mL | > 50 µg/mL | 0.062 µg/mL | > 50 µg/mL | 155 nM | 0.12 s⁻¹ | 773000 M⁻¹ s⁻¹ | 41.6% | 6560 | 54.7% | 5100
